Where no end group is shown, it is not given here. Me2 = dimethyl (dimethylated lysine)
Target: Human 53BP1-Tudor (residues 1484-1603) (human, UniProt Q12888 1484-1603)
Assay: ITC

Chain of Human 53BP1-Tudor (residues 1484-1603) (Q12888 1484-1603): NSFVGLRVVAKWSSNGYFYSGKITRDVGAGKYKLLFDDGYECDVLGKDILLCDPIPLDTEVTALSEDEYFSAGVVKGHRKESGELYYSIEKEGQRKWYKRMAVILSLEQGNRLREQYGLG

Binder | Kd
SSHLK(Me2)SKKGQ (peptide, UniProt P04637 366-375, looked up) [p53K370me2 peptide (residues 366-375)] | 52 µM
TSRHKK(Me2)LMFK (peptide, UniProt P04637 377-386, looked up) [p53K382me2 peptide (residues 377-386)] | 8 µM
